Laboratory results as given in patent US20210302435A1 (SEATTLE CHILDREN S HOSPITAL D B A SEATTLE CHILDREN S …, published 2021).

T1: IDUA 462 signature peptide (IDUA 462-474)
T1 construct: Endogenous tryptic peptide from digested DBS, PBMC or buccal swab samples; An internal standard version of the same peptide (1.25 fmol) was captured alongside it; also called second IDUA signature peptide
T1 peptide: GVPPGPGLVYVTR

T2: IDUA 218 signature peptide (IDUA 218-230)
T2 construct: Endogenous tryptic peptide from digested DBS, PBMC or buccal swab samples; An internal standard version of the same peptide (1.25 fmol) was captured alongside it; also called first IDUA signature peptide
T2 peptide: LGGPGDSFHTPPR

B1: anti-IDUA 462 monoclonal antibody (antibody, V domains shown)
VH: EVQLQQSGAELVKPGASVKLSCTASGFNIKDTYMHWVNQRPEQGLEWIGRIDPANGNTKYGPKFQGKATITADTSSNTAYLQLSSLTSEDTAVYYCAQTARAPFAYWGQGTLVTVSA
VL: DIVITQDEVSNPVTSGESVSISCRSSKSLLYKDGKTYLNWFLQRPGQSPQLLVYWMSTRASGVSDRFSGSGSGTDFTLKISRVKAEDVGMYYCQQVVEYPFTFGTGTKLEIK
notes: Used as a monoclonal antibody coated on Protein G magnetic beads (4 ug per assay)
B2: anti-IDUA 218 monoclonal antibody (antibody, V domains shown)
VH: QVQLQQPGTELVKPGASVKLSCKASGYTFTRYWMHWVKQRPGQGLEWIGEINPSNGGTNYNEKFKNKATLNVDKSSSTAYMQLSSLTSEDSAVYYCTLAMDYWGQGTSVTVSS
VL: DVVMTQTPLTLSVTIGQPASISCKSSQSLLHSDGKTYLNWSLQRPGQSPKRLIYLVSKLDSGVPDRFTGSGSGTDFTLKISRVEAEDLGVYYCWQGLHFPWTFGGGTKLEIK
notes: Used as a monoclonal antibody coated on Protein G magnetic beads (1 ug per assay)

Key:
[1] = molecular target: T1, IDUA 462 signature peptide (IDUA …); experiment: immuno-SRM, mAb on Protein G magnetic beads, peptide capture from PBMC digest
[2] = molecular target: T2, IDUA 218 signature peptide (IDUA …); experiment: as above

Binder | binding result [1] | binding result [2]
B1 | binds | 
B2 |  | binds
